We go through one molecule from paper PMC9729208, “Structural basis for the non-self RNA-activated protease activity of the type III-E CRISPR nuclease-protease Craspase”.

The target in data set [1] is gRAMP;TPR-CHAT (Candidatus Scalindua brodae;Candidatus …, UniProt A0A0B0EGF3;A0A0B0EKL4 1-1717;1-716, |). The data set can be described thus: cryo-EM (2.6 A); Complex assembly at 1:1.2 (complex:target RNA), 5 mM EDTA, on ice 30 min; SEC in 20 mM Tris-HCl pH 8.0, 150 mM NaCl, 1 mM DTT. As to conditions: protein: recombinant;recombinant; tags: N-terminal His6;C-terminal Strep II; copies: 1;1; single strand; 35 nt modelled in 7Y80 and 7Y84.

Data set [2] has as its target gRAMP (Candidatus Scalindua brodae, UniProt A0A0B0EGF3 1-1717). Briefly: cryo-EM; Complex assembly at 1:1.2 (complex:target RNA), 5 mM EDTA, on ice 30 min; SEC in 20 mM Tris-HCl pH 8.0, 150 mM NaCl, 1 mM DTT. To be noted: protein: recombinant; tags: N-terminal His6; single strand; 35 nt modelled in 7Y80 and 7Y84.

B1: crRNA (ssRNA)
RNA: GACUUAAUGUCACGGUACCCAAUUUUCUGCCCCGGACUCCACGGCUGUUACUAGAG
For B1, the binding result in data set [1] and in data set [2] was “binds” throughout.
